Laboratory results published in US20050287597.

Target: synthetic Tat (72 amino acids) carrying an N-terminal biotin label and an acetyl group at position 50

B1: FLAG-tagged human SIRT1 (C-terminal FLAG tag) (protein)
chain: MADEAALALQPGGSPSAAGADREAASSPAGEPLRKRPRRDGPGLERSPGEPGGAAPEREVPAAARGCPGAAAAALWREAEAEAAAAGGEQEAQATAAAGEGDNGPGLQGPSREPPLADNLYDEDDDDEGEEEEEAAAAAIGYRDNLLFGDEIITNGFHSCESDEEDRASHASSSDWTPRPRIGPYTFVQQHLMIGTDPRTILKDLLPETIPPPELDDMTLWQIVINILSEPPKRKKRKDINTIEDAVKLLQECKKIIVLTGAGVSVSCGIPDFRSRDGIYARLAVDFPDLPDPQAMFDIEYFRKDPRPFFKFAKEIYPGQFQPSLCHKFIALSDKEGKLLRNYTQNIDTLEQVAGIQRIIQCHGSFATASCLICKYKVDCEAVRGDIFNQVVPRCPRCPADEPLAIMKPEIVFFGENLPEQFHRAMKYDKDEVDLLIVIGSSLKVRPVALIPSSIPHEVPQILINREPLPHLHFDVELLGDCDVIINELCHRLGGEYAKLCCNPVKLSEITEKPPRTQKELAYLSELPPTPLHVSEDSSSPERTSPPDSSVIVTLLDQAAKSNDDLDVSESKGCMEEKPQEVQTSRNVESIAEQMENPDLKNVGSSTGEKNERTSVAGTVRKCWPNRVAKEQISRRLDGNQYLFLPPNRYIFHGAEVYSDSEDDVLSSSSCGSNSDSGTCQSPSLEEPMEDESEIEEFYNGLEDEPDVPERAGGAGFGTDGDDQEAINEAISVKQEVTDMNYPSNKS
in vitro Tat deacetylation (western blot with antibodies specific for acetylated lysine 50 in Tat): resulted in deacetylation of Tat lysine 50

B2: FLAG-tagged human SIRT2 (C-terminal FLAG tag) (protein)
chain: MAEPDPSHPLETQAGKVQEAQDSDSDSEGGAAGGEADMDFLRNLFSQTLSLGSQKERLLDELTLEGVARYMQSERCRRVICLVGAGISTSAGIPDFRSPSTGLYDNLEKYHLPYPEAIFEISYFKKHPEPFFALAKELYPGQFKPTICHYFMRLLKDKGLLLRCYTQNIDTLERIAGLEQEDLVEAHGTFYTSHCVSASCRHEYPLSWMKEKIFSEVTPKCEDCQSLVKPDIVFFGESLPARFFSCMQSDFLKVDLLLVMGTSLQVQPFASLISKAPLSTPRLLINKEKAGQSDPFLGMIMGLGGGMDFDSKKAYRDVAWLGECDQGCLALAELLGWKKELEDLVRREHASIDAQSGAGVPNPSTSASPKKSPPPAKDEARTTEREKPQ
in vitro Tat deacetylation (western blot with antibodies specific for acetylated lysine 50 in Tat): resulted in deacetylation of Tat lysine 50

B3: FLAG-tagged human SIRT3 (C-terminal FLAG tag) (protein)
chain: MAFWGWRAAAALRLWGRVVERVEAGGGVGPFQACGCRLVLGGRDDVSAGLRGSHGARGEPLDPARPLQRPPRPEVPRAFRRQPRAAAPSFFFSSIKGGRRSISFSVGASSVVGSGGSSDKGKLSLQDVAELIRARACQRVVVMVGAGISTPSGIPDFRSPGSGLYSNLQQYDLPYPEAIFELPFFFHNPKPFFTLAKELYPGNYKPNVTHYFLRLLHDKGLLLRLYTQNIDGLERVSGIPASKLVEAHGTFASATCTVCQRPFPGEDIRADVMADRVPRCPVCTGVVKPDIVFFGEPLPQRFLLHVVDFPMADLLLILGTSLEVEPFASLTEAVRSSVPRLLINRDLVGPLAWHPRSRDVAQLGDVVHGVESLVELLGWTEEMRDLVQRETGKLDGPDK
in vitro Tat deacetylation (western blot with antibodies specific for acetylated lysine 50 in Tat): resulted in deacetylation of Tat lysine 50
